# T1: human C2 K430A (human, UniProt P06681 21-752)
# T1 sequence: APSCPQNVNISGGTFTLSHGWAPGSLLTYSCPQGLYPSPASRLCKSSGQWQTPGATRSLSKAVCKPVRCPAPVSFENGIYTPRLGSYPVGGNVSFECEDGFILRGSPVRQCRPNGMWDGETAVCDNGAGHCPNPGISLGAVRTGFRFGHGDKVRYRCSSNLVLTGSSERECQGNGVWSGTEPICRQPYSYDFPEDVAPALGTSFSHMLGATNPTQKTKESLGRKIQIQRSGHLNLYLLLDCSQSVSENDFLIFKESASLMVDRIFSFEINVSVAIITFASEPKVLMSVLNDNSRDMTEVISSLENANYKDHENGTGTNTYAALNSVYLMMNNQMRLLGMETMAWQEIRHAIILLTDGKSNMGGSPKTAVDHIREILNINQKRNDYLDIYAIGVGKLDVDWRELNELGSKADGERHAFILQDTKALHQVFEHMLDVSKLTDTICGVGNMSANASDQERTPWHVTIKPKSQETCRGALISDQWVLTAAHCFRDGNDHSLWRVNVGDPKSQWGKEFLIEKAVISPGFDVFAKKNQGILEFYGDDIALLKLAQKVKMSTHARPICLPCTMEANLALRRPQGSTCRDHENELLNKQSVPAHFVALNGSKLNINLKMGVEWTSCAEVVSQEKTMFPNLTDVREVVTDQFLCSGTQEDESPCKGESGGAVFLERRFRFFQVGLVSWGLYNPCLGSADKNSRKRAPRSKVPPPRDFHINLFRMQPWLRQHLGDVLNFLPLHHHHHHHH
# T2: human C2 V448A (human, UniProt P06681 21-752)
# T2 sequence: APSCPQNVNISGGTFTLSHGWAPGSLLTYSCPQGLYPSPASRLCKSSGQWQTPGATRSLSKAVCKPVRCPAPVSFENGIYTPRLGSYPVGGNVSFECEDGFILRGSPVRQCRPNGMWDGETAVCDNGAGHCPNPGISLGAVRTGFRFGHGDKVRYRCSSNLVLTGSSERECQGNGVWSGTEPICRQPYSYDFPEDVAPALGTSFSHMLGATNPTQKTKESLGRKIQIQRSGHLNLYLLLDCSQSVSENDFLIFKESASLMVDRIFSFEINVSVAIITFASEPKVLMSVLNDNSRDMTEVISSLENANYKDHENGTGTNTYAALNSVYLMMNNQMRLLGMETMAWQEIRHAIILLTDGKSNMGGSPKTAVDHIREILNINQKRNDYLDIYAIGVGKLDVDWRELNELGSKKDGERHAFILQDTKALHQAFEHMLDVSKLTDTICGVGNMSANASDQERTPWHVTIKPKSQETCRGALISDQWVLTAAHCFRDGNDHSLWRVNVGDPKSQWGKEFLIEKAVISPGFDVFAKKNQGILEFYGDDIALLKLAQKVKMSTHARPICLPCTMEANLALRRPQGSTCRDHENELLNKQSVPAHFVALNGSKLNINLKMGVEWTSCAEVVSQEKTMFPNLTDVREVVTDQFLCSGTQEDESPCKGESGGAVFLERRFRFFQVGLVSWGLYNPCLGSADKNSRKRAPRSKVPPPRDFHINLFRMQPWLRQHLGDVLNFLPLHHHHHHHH
# T3: human C2 K487A (human, UniProt P06681 21-752)
# T3 sequence: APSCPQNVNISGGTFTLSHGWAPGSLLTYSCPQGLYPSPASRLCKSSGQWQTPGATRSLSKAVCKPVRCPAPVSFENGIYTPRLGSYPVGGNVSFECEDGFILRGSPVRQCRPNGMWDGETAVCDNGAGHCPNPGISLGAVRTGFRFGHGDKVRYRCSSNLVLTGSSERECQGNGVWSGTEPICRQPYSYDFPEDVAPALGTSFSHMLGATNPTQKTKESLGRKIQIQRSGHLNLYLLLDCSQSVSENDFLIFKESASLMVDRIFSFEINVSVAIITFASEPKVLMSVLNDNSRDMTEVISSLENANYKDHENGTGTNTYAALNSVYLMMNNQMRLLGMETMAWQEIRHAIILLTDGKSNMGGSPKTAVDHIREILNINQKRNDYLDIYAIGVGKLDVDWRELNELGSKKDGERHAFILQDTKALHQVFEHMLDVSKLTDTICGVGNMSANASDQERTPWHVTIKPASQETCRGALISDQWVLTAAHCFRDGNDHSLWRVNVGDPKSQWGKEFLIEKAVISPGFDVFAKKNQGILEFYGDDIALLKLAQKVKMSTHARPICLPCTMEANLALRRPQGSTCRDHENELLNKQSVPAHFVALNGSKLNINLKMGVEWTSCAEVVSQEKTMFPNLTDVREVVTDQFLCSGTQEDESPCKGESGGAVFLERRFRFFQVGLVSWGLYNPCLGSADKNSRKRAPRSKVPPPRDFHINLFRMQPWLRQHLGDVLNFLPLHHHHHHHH
# T4: human C2 Y558A (human, UniProt P06681 21-752)
# T4 sequence: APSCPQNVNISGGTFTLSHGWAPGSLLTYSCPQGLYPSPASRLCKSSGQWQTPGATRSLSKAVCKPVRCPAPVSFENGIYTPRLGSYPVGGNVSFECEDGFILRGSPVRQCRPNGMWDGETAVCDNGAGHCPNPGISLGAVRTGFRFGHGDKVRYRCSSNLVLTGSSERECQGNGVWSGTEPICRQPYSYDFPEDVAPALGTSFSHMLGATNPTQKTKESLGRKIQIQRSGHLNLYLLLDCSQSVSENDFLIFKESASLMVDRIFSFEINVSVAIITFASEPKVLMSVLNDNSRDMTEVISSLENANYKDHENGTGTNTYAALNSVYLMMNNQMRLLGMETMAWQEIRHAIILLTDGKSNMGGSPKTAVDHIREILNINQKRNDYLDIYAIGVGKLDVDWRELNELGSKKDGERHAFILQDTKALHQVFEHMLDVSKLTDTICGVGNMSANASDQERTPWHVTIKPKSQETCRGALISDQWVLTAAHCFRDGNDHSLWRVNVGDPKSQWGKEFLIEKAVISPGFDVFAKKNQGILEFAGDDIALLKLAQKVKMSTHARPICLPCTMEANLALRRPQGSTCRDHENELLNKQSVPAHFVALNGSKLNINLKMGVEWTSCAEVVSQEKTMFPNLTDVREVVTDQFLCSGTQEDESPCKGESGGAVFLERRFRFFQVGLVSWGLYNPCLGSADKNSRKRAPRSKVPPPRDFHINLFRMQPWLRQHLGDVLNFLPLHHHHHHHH
# B1: RF16-226 (antibody, human IgG4 S228P, lambda)
# heavy: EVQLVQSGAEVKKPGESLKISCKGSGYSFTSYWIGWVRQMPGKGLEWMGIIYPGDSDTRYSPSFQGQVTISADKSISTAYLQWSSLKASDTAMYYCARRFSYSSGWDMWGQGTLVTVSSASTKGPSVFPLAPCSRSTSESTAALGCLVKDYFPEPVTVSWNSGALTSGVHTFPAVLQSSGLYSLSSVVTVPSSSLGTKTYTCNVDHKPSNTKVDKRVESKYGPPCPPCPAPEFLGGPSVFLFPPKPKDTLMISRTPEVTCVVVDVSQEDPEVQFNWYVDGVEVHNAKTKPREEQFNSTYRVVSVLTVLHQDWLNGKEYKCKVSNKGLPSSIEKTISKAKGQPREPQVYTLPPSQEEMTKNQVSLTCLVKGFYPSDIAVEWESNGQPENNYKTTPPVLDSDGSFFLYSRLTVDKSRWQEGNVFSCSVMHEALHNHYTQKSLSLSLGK
# light: SYELTQPPSVSVSPGQTARITCSGDALTSKYVAWYQQKSGLAPLLVIYEDTRRPSGIPAKFSGSSSGSVATLTISGAHGDDEADYYCYSTDASGHQRVFGGGTKLTVLSQPKAAPSVTLFPPSSEELQANKATLVCLISDFYPGAVTVAWKADGSPVKAGVETTKPSKQSNNKYAASSYLSLTPEQWKSHRSYSCQVTHEGSTVEKTVAPTECS
# notes: pH-dependent anti-C2 antibody from a phage display library; also called WT
# Experiments:
# Experiment in all cases: SPR, KD relative to WT C2;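 note: biacore SPR at 37 °C, anti-C2 mAbs captured via immobilised goat anti-human IgG, C2 alanine or serine surface mutants as analytes, 1:1 model fitted, double-referenced sensograms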
# human C2 K430A = target: T1, human C2 K430A
# human C2 V448A = target: T2, human C2 V448A
# human C2 K487A = target: T3, human C2 K487A
# human C2 Y558A = target: T4, human C2 Y558A
binder,measurement,setting,value
B1,Fold diff,human C2 K430A,6 fold
same,Fold diff,human C2 V448A,0 fold
same,Fold diff,human C2 K487A,9 fold
same,Fold diff,human C2 Y558A,16 fold

# — patent US20220332804A1 (CSL INNOVATION, published 2022)
